Values quoted from earlier work, collected in article PMC12203939.

Legend:
[1] = molecular target: PKA regulatory subunit RI (Homo sapiens) (UniProt P10644)
[2] = molecular target: PKA regulatory subunit RII (Homo sapiens) (UniProt P13861)
Chain of PKA regulatory subunit RII (Homo sapiens) (P13861 2-404): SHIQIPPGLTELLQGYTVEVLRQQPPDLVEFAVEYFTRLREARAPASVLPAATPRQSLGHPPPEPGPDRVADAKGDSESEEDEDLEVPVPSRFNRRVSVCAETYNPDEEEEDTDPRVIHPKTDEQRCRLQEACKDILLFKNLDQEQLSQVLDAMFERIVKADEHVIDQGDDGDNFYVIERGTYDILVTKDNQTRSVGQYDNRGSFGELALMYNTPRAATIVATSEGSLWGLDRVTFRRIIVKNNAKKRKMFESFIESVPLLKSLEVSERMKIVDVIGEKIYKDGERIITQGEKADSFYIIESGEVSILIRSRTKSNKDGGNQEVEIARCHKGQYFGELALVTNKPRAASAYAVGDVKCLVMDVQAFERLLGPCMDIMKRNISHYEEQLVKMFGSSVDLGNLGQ

Chain of OPA1 (O60313 195-960): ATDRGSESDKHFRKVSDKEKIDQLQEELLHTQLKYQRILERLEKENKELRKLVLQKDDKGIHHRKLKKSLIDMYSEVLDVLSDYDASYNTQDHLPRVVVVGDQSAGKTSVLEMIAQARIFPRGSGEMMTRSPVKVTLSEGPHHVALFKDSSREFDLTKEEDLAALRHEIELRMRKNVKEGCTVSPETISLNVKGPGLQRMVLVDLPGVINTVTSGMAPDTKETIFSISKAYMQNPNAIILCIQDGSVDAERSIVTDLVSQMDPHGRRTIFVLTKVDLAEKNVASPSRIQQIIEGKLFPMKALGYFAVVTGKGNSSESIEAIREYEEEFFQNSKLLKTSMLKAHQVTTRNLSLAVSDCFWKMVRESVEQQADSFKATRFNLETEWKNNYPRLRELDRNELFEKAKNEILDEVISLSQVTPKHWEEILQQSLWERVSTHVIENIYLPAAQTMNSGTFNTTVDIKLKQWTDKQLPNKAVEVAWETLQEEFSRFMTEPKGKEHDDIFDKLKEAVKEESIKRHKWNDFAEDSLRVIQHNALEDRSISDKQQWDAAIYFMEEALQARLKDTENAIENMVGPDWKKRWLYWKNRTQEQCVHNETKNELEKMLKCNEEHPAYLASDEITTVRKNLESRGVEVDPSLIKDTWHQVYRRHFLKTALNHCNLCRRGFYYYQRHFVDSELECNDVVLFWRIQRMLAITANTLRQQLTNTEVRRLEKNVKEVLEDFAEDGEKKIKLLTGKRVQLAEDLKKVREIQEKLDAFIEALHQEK
Chain of PKA regulatory subunit RI (Homo sapiens) (P10644 whole entry): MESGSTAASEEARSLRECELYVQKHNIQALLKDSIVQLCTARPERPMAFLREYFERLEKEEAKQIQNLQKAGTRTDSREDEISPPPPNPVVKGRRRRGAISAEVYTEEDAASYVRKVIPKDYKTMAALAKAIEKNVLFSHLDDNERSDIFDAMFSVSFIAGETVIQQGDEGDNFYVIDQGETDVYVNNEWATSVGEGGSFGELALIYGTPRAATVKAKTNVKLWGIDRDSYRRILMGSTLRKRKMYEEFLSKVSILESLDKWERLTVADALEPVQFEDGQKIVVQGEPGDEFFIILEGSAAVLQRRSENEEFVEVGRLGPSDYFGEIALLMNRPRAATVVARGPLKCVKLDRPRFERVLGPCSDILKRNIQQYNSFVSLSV

Kd [1]: 12.5 nM
Kd [2]: 14 nM
Substance: OPA1 (from UniProt O60313)
